Key:
[1] = target: IL10 receptor (UniProt Q13651); assay: cell-based or functional assay
[2] = target: IL4 (type II) receptor (UniProt P24394); assay: cell-based or functional assay
Chain of IL4 (type II) receptor (P24394 26-825 limits assumed, chain 1 of 2): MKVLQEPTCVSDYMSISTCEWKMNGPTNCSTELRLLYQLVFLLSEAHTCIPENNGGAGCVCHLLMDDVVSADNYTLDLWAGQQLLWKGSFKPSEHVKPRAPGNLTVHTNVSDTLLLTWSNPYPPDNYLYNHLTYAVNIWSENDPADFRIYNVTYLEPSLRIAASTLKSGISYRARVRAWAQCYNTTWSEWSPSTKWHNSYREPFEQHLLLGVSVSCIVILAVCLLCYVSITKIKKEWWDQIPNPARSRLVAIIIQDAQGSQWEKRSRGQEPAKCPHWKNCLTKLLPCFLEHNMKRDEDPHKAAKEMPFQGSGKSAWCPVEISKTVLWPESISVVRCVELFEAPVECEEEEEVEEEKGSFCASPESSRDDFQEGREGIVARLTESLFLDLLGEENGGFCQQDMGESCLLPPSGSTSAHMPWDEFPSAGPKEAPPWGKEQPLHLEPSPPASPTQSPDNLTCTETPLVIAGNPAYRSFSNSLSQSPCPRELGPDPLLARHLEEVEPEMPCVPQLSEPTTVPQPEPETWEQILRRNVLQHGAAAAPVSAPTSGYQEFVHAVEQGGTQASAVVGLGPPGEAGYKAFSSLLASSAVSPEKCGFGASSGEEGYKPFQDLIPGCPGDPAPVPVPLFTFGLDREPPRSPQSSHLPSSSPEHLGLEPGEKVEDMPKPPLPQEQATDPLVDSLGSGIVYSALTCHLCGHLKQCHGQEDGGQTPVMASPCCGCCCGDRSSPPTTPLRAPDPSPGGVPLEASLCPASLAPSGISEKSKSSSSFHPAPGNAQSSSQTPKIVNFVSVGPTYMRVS
Chain of IL4 (type II) receptor (P78552 22-427 limits assumed, chain 2 of 2, further chain): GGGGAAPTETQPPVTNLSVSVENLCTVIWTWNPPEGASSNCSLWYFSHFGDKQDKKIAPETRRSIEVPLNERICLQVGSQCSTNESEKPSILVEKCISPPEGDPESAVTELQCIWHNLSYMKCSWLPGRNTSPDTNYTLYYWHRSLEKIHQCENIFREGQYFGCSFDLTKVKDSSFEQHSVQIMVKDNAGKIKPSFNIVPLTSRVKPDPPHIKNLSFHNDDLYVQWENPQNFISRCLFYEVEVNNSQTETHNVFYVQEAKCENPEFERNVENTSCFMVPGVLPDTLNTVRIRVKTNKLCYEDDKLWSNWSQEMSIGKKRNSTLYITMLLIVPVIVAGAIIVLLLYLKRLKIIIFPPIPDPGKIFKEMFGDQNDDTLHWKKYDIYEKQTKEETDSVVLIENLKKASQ

Chain of IL10 receptor (Q13651 22-578 limits assumed, chain 1 of 2): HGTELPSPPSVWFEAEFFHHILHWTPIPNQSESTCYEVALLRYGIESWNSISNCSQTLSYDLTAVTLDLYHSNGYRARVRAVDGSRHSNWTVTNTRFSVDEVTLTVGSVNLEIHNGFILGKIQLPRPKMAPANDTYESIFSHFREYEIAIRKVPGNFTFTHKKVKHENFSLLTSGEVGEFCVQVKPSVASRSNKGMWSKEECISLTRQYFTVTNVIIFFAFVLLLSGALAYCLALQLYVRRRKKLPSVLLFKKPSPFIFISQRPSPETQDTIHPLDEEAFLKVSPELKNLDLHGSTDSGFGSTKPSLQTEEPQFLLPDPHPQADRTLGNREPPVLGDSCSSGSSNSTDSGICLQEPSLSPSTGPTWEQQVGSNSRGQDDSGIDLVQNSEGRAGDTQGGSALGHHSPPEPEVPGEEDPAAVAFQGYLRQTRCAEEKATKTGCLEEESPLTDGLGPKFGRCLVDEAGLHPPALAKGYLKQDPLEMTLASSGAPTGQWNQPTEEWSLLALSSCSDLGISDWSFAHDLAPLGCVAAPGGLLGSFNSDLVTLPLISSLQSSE
Chain of IL10 receptor (Q08334 20-325 limits assumed, chain 2 of 2, further chain): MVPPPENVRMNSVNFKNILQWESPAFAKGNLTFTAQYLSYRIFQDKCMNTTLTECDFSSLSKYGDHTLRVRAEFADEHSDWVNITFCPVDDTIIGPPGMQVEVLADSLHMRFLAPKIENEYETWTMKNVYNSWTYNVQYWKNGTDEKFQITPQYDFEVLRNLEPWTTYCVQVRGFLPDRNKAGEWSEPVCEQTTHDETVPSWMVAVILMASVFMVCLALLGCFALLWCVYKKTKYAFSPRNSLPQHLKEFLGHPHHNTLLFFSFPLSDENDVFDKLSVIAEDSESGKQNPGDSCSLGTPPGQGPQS

| Substance | HEK-Blue IL10 EC50 (STAT-3 mediated SEAP expression) [1] [nM] | HEK-Blue IL4/13 EC50 (STAT6-induced SEAP expression) [2] [nM] |
| --- | --- | --- |
| IL10 (from UniProt P22301 19-178) (ligand) | 0.0264 | – |
| IL13 (from UniProt P35225 33-146) (ligand) | – | 0.033 |

— patent US20260132178A1
